Test results: the supplement of paper PMC10126150
± gives the standard deviation of the averaged measurements.

What follows are sequences tested on ATP (assay: switch fluorescence ratio, 500 uM ATP over buffer (Cy3 cluster intensity, sum of 5 cycles each) (fold (ratio)); higher = stronger signal-on switching upon ATP binding; sequences stand for … in TCGTCGGCAGCGTCAGATGTGTATAAGAGACAGTTTTTTTTTTTTTTTTTTTTTTTTT…TC). Conditions: aptamer strand: ATP DNA aptamer (quencher-CACCTGGGGGAGTATTGCGGAGGAAGG + anchor), 100 nM annealed; ATP concentration: 500 uM.
Method in brief: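 The fluorescence ratio divides summed target-cycle Cy3 intensity by summed buffer-cycle Cy3 intensity for each cluster and is averaged per switch-domain sequence. Cy3-labelled switching-strand clusters on a modified Illumina MiSeq flow-cell were annealed to 100 nM quencher-labelled ATP aptamer, then imaged in selection buffer and again after 15 min with 500 uM ATP at 22 °C. Five such cycles were run, with NaOH stripping and re-annealing between them, and clusters outside 100-1000 RFU were excluded.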
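Also: ATP exposure 15 min at 22 °C before imaging.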

Sequence	switch fluorescence ratio
TAGTCTTAGG	0.973 ± 0.049
ACCGATTGTT	1.017 ± 0.0016
GAGAAAATCG	1 ± 0.043
GTGTCTTGGA	0.9893 ± 0.0052
TTAAGAAG	0.996 ± 0.015
GTCGGGAGTG	0.986 ± 0.065
ATCAGGTTCT	1.028 ± 0.0031
CGTTAATTAC	1.38 ± 0.036
AACTATGCAG	1.02 ± 0.017
TTCTAGGTAG	0.991 ± 0.05
ATGGACACGC	1.03 ± 0.042
GGGTAAGTTT	1.007 ± 0.0044
ATGGGTGCCT	1.03 ± 0.023
ATTTGGTGCT	0.999 ± 0.018
GGGTGTGGG	0.986 ± 0.05
TCGCTTGGGG	1 ± 0.013
GGGCTAGTTA	0.9948 ± 0.0073
AGAGTTGTTA	0.996 ± 0.013
CGGGGGACAG	1.03 ± 0.066
GAGTTGTCGA	0.994 ± 0.022
CCCGAGTGGG	0.992 ± 0.054
GGGGATAGT	1 ± 0.015
AGTAAATTAT	1.03 ± 0.027

Sequence	switch fluorescence ratio
TTTTAGAAA	1.02 ± 0.07
AGTTGCTCCT	0.986 ± 0.024
GGTCTGTGTG	0.984 ± 0.028
TGTAAATGGG	0.984 ± 0.024
TAGGGGGT	0.985 ± 0.027
TGGTTACCTA	0.987 ± 0.039
GGAAAAAGGG	1 ± 0.02
ATGAGTTACT	1.005 ± 0.0051
GTGGGATTTT	0.986 ± 0.062
TTTGAAAGGC	1.76 ± 1.1
ATGGTTGTCA	1.03 ± 0.015
TAGAATGGC	1.01 ± 0.054
AAAGTGGGAG	0.971 ± 0.012
CCTGAAACCT	1.51 ± 0.48
ACAGGAAGGG	1 ± 0.01
AGAGAGTGAC	0.981 ± 0.01
AAAAGGGCGG	1.01 ± 0.023
CCGATAGCGT	2.81 ± 0.45
GAATTGAGCA	0.996 ± 0.019
CGGGGGGCCA	1.016 ± 0.0048
TTCCAGGGGA	1.08 ± 0.11
GGTTTTTGGT	1 ± 0.032
TTTTTTTCAG	1.01 ± 0.016

Sequence	switch fluorescence ratio
TCGTCTGCGG	1.04 ± 0.03
AGGGTGCTCC	1.23 ± 0.33
GGGCCCTGGT	1.01 ± 0.013
ATGCATTAAT	0.997 ± 0.015
CTTAAATGTA	0.982 ± 0.021
TGTAGGGGGA	0.999 ± 0.052
TTGTTGAAAC	1.03 ± 0.085
CGTGTAATGT	0.985 ± 0.048
TTAGCACGTC	1.076 ± 0.0074
CCTTGAGGGG	0.9925 ± 0.0036
AATAATAAGA	1 ± 0.017
AATAGGAAGT	1.011 ± 0.007
TAATGGTCGG	0.985 ± 0.053
GTGGGCCTTT	0.987 ± 0.015
CGAGGTGTAG	0.98 ± 0.022
ATGATGCTTG	0.993 ± 0.045
AAATGTCTTG	0.955 ± 0.043
TTGGGGGGTA	0.987 ± 0.028
TCCGGTCAGC	1.13 ± 0.15
AAGTTCCGGA	1.034 ± 0.0072
CGGTGGTCCA	0.997 ± 0.017
CAGACGTCGA	1.05 ± 0.066
TAAACCTGTG	1.05 ± 0.088

Sequence	switch fluorescence ratio
TCTTAGGCGT	1.02 ± 0.022
AGGCGTAAAT	0.997 ± 0.029
GATCTGCACG	0.9947 ± 0.0032
ATCGGGGTCC	1.02 ± 0.019
ATGGGGGGT	0.992 ± 0.028
GTATTAGAAG	0.975 ± 0.047
AAGGGGTATT	1.01 ± 0.027
AAGGTTTCAA	0.985 ± 0.018
AGGGATGGGT	0.976 ± 0.0026
TTTTTAAACA	1.01 ± 0.068
TTTACGTAGT	1.03 ± 0.019
TATAGCCTAG	0.99 ± 0.027
TTTTCATTCA	1.023 ± 0.0072
GGTATAAAGA	0.984 ± 0.049
TCGTTGGACT	1.01 ± 0.0029
AAATTTGTGT	0.999 ± 0.051
TTCAGGTACT	1.06 ± 0.019
AGGTGAGGCA	1.05 ± 0.097
TTTAACAACT	1.01 ± 0.017
GTAGTTGTGG	1.01 ± 0.014
TAATGAGCTA	0.987 ± 0.042
TTTGCGGCGT	0.986 ± 0.022
TGTCGAGGGG	0.981 ± 0.017

Sequence	switch fluorescence ratio
TAGGGGGGGA	1.01 ± 0.018
TGGTTAATCG	0.9949 ± 0.0079
TTGCGTGATG	1.02 ± 0.029
ATCGTGATGG	1.03 ± 0.04
CCTTCTAGTT	1.035 ± 0.0018
GGCCCCGGCG	1 ± 0.015
ATTAGCGTCA	0.991 ± 0.018
TTTGTATTCC	0.991 ± 0.1
AAGTTTGGAT	0.9919 ± 0.005
TTTTAAGCTA	1.12 ± 0.2
GGACAAAACT	1.08 ± 0.12
CGGTAGTTCG	0.955 ± 0.038
ATCAGGGGGG	1.02 ± 0.037
AGCATTTTCA	1.24 ± 0.32
TTCATCGAGC	1.019 ± 0.0076
AGGATCGTCA	0.9893 ± 0.0038
TGGGTTGGGG	1.01 ± 0.049
ATACTGGTAG	1.02 ± 0.047
CAATAATATG	0.993 ± 0.029
ATAGACTTTA	1.04 ± 0.043
AAGCTCGTGC	0.973 ± 0.089
TTATATGTTG	1.02 ± 0.026
GGCGTTTTAG	0.998 ± 0.034

Sequence	switch fluorescence ratio
AAATATATCT	0.987 ± 0.012
GCATTTGGCT	1.027 ± 0.0064
CATTTTATAT	1.02 ± 0.012
GGTTTAGCTG	0.984 ± 0.041
ATCGGAATAA	1.4 ± 0.025
AGAGGTGTGC	1.049 ± 0.01
TCGCAGCTTG	1.05 ± 0.029
GTTGCCGAGT	1.024 ± 0.0048
GCTTACTCTG	1.62 ± 0.085
AGGCGTAGCT	1.01 ± 0.044
GTGTTTTTTG	0.968 ± 0.019
GATGGAGTAA	1.08 ± 0.042
ACTAGCGGCG	1.05 ± 0.024
AAAAAAATGG	1.01 ± 0.041
CGCTATTGTG	1.01 ± 0.021
CGTGTGGGGT	1.01 ± 0.027
CAGGTGGTGG	1.02 ± 0.02
GCATGAAAAC	1.03 ± 0.031
GATCGAGTTA	1.034 ± 0.0073
GCACCAATT	1.06 ± 0.072
ATTAGGGAAT	0.976 ± 0.04
GATGTAATAG	1.57 ± 0.19
TAGGGGGCTC	0.959 ± 0.02

Sequence	switch fluorescence ratio
TTGTTGCGGG	0.977 ± 0.019
AAAACCGGGA	1.32 ± 0.52
ACTAGGCAAG	1.13 ± 0.018
GAGTTTAGAT	0.994 ± 0.018
GGAAATCAGG	0.989 ± 0.012
AAAAACGTAA	1.1 ± 0.061
ACTGGGTTTC	0.99 ± 0.054
TTCGGCTCGA	1.05 ± 0.034
TTTTTCGGTA	1.05 ± 0.038
TGAGGATTTT	1.05 ± 0.1
AATAGCTACT	1.076 ± 0.01
GCAGATGATC	1.027 ± 0.0014
TGGGAAATCG	1.03 ± 0.014
CAGGGAAGGG	1.01 ± 0.049
TAAAATTCTT	1.01 ± 0.025
TAGGGTGCTA	1 ± 0.019
ACTTGGCATC	1.13 ± 0.043
GTCGTCTTTT	1.01 ± 0.012
AGGTTGAGGA	0.964 ± 0.033
